Protein stability index data for 94 variants are collected here from the supplement of paper PMC10567573.

B1: DLC1 (parent)
chain: AIQGISEKEKAEIEAKEACDWLRA
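Note: lentivirally expressed fusions sorted by FACS into six bins by GFP to DsRed ratio, PSI derived from sequencing read proportions per bin multiplied by bin number.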

The data set covers variants of B1. The data set can be described thus: protein stability index of a GFP-peptide fusion (GPS, HEK-293T) (PSI 1-6); higher = more stable. The note with it: c terminus: a fixed tail appended.
Regarding AIQGISEKEKARIEAKEACDWLRA [E12R], the protein stability index was 3.86.

Regarding AIQGISEKEKAPIEAKEACDWLRA [E12P], the protein stability index amounted to 4.63. Then AIQGISEKEKACIEAKEACDWLRA [E12C], with 3.85; and AIQGISEKEKAKIEAKEACDWLRA [E12K], with 3.81. For AIQGISEKEKALIEAKEACDWLRA [E12L] the value was 3.72; for AIQGISEKEKADIEAKEACDWLRA [E12D], 4.43; for AIQGISEKEKAHIEAKEACDWLRA [E12H], 3.46. For AIQGISEKEKAIIEAKEACDWLRA [E12I] the value was 4.02; for AIQGISEKEKAFIEAKEACDWLRA [E12F], 3.82; for AIQGISEKEKASIEAKEACDWLRA [E12S], 4.02. In the case of AIQGISEKEKAAIEAKEACDWLRA [E12A], the protein stability index was determined as 3.89. For AIQGISEKEKAMIEAKEACDWLRA [E12M] the value was 3.98; for AIQGISEKEKAQIEAKEACDWLRA [E12Q], 4.18; for AIQGISEKEKAGIEAKEACDWLRA [E12G], 4.42.

On to AIQGISEKEKANIEAKEACDWLRA [E12N], for which the protein stability index turned out to be 4.5. For AIQGISEKWKAEIEAKEACDWLRA [E9W] the value was 3.63; for AIQGISEKNKAEIEAKEACDWLRA [E9N], 4.5.

On to AIQGISEKPKAEIEAKEACDWLRA [E9P], for which the protein stability index was 4.08.

Regarding AIQGISEKMKAEIEAKEACDWLRA [E9M], the protein stability index was found to be 3.22. AIQGISEKGKAEIEAKEACDWLRA [E9G]: the protein stability index was found to be 4.23.

As to AIQGISEKAKAEIEAKEACDWLRA [E9A], the protein stability index is 4.19.

With AIQGISEKVKAEIEAKEACDWLRA [E9V], the protein stability index was 3.88. Then AIQGISEKHKAEIEAKEACDWLRA [E9H], with 4.71; and AIQGISEKDKAEIEAKEACDWLRA [E9D], with 4.2; and AIQGISEKYKAEIEAKEACDWLRA [E9Y], with 3.48. For AIQGISEKQKAEIEAKEACDWLRA [E9Q] the value was 4.14; for AIQGISEKIKAEIEAKEACDWLRA [E9I], 3.29. Then AIQGISEKLKAEIEAKEACDWLRA [E9L], with 2.97. AIQGISEKFKAEIEAKEACDWLRA [E9F]: the protein stability index came out at 2.69. For AIQGISEKKKAEIEAKEACDWLRA [E9K] the value was 3.97. As to AIQGISEKRKAEIEAKEACDWLRA [E9R], the protein stability index turned out to be 3.08. AIQGISEKCKAEIEAKEACDWLRA [E9C]: the protein stability index came out at 3.76.

For the variant AIQGISEKSKAEIEAKEACDWLRA [E9S], the protein stability index stood at 4.22. Then AIQGISEKTKAEIEAKEACDWLRA [E9T], with 4.12; and AIQGISEYEKAEIEAKEACDWLRA [K8Y], with 3.69; and AIQGISENEKAEIEAKEACDWLRA [K8N], with 3.88. For AIQGISEVEKAEIEAKEACDWLRA [K8V] the value was 4.2; for AIQGISEFEKAEIEAKEACDWLRA [K8F], 3.97; for AIQGISEEEKAEIEAKEACDWLRA [K8E], 5.05. For AIQGISEQEKAEIEAKEACDWLRA [K8Q] the value was 4.3. Consider AIQGISEHEKAEIEAKEACDWLRA [K8H], for which the protein stability index turned out to be 4.4. For AIQGISEWEKAEIEAKEACDWLRA [K8W] the value was 3.68; for AIQGISEPEKAEIEAKEACDWLRA [K8P], 4.72; for AIQGISEMEKAEIEAKEACDWLRA [K8M], 4.49. In the case of AIQGISELEKAEIEAKEACDWLRA [K8L], the protein stability index was 3.85. Then AIQGISEREKAEIEAKEACDWLRA [K8R], with 4.43; and AIQGISESEKAEIEAKEACDWLRA [K8S], with 3.98; and AIQGISETEKAEIEAKEACDWLRA [K8T], with 5.01. Then AIQGISEAEKAEIEAKEACDWLRA [K8A], with 3.75.

With AIQGISEGEKAEIEAKEACDWLRA [K8G], the protein stability index is 4.6. Then AIQGISEIEKAEIEAKEACDWLRA [K8I], with 4.5.

Consider AIQGISEDEKAEIEAKEACDWLRA [K8D], for which the protein stability index came to 4.61. Take AIQGISECEKAEIEAKEACDWLRA [K8C]: the protein stability index turned out to be 4. For AIQGISYKEKAEIEAKEACDWLRA [E7Y] the value was 3.63; for AIQGISWKEKAEIEAKEACDWLRA [E7W], 3.58; for AIQGISVKEKAEIEAKEACDWLRA [E7V], 3.88. For the variant AIQGISEKEAAEIEAKEACDWLRA [K10A], the protein stability index was 4.67. Turning to AIQGISEKEDAEIEAKEACDWLRA [K10D], the protein stability index worked out at 4.47. For AIQGISEKEEAEIEAKEACDWLRA [K10E] the value was 4; for AIQGISEKELAEIEAKEACDWLRA [K10L], 4.08; for AIQGISEKEIAEIEAKEACDWLRA [K10I], 3.8.

Turning to AIQGISEKEVAEIEAKEACDWLRA [K10V], the protein stability index turned out to be 3.9. Then AIQGISEKESAEIEAKEACDWLRA [K10S], with 4.61; and AIQGISEKEQAEIEAKEACDWLRA [K10Q], with 4.57; and AIQGISEKECAEIEAKEACDWLRA [K10C], with 4.54. Then AIQGISEKEPAEIEAKEACDWLRA [K10P], with 4.18; and AIQGISEKEFAEIEAKEACDWLRA [K10F], with 3.71; and AIQGISEKENAEIEAKEACDWLRA [K10N], with 4.71. Then AIQGISEKEWAEIEAKEACDWLRA [K10W], with 3.73; and AIQGISEKERAEIEAKEACDWLRA [K10R], with 4.04. For the variant AIQGISEKEYAEIEAKEACDWLRA [K10Y], the protein stability index was determined as 4.11. Then AIQGISEKEMAEIEAKEACDWLRA [K10M], with 4.67; and AIQGISEKEHAEIEAKEACDWLRA [K10H], with 4.38; and AIQGISEKEGAEIEAKEACDWLRA [K10G], with 4.17. Then AIQGISEKETAEIEAKEACDWLRA [K10T], with 4.68; and AIQGISEKEKNEIEAKEACDWLRA [A11N], with 4.5. As to AIQGISEKEKDEIEAKEACDWLRA [A11D], the protein stability index was 5.18. Then AIQGISEKEKSEIEAKEACDWLRA [A11S], with 4.79; and AIQGISEKEKREIEAKEACDWLRA [A11R], with 4.23; and AIQGISEKEKEEIEAKEACDWLRA [A11E], with 4.87. For AIQGISEKEKHEIEAKEACDWLRA [A11H] the value was 4.34; for AIQGISEKEKGEIEAKEACDWLRA [A11G], 4.56; for AIQGISEKEKPEIEAKEACDWLRA [A11P], 4.51. Then AIQGISEKEKKEIEAKEACDWLRA [A11K], with 4.47. On to AIQGISEKEKIEIEAKEACDWLRA [A11I], for which the protein stability index was determined as 3.67. For AIQGISEKEKQEIEAKEACDWLRA [A11Q] the value was 4.57; for AIQGISEKEKMEIEAKEACDWLRA [A11M], 3.99. Then AIQGISEKEKTEIEAKEACDWLRA [A11T], with 4.67.

Consider AIQGISEKEKYEIEAKEACDWLRA [A11Y], for which the protein stability index amounted to 4.16. With AIQGISEKEKLEIEAKEACDWLRA [A11L], the protein stability index turned out to be 4.23. For AIQGISEKEKCEIEAKEACDWLRA [A11C] the value was 4.32. For AIQGISEKEKWEIEAKEACDWLRA [A11W] the value was 3.53. Take AIQGISEKEKFEIEAKEACDWLRA [A11F]: the protein stability index stood at 3.64. In the case of AIQGISEKEKVEIEAKEACDWLRA [A11V], the protein stability index came to 4.61.
